Laboratory results as given in the supplement of paper PMC5998384.

Experiments:
HeLa Kyoto [1] = assay: thermal stability score vs G1/S (z-score of summed log2 fold changes over temperatures); higher = more thermally stable than in G1/S
HeLa Kyoto [2] = assay: melting temperature (median over replicates), in situ; higher = more thermally stable
HeLa Kyoto [3] = assay: solubility in G1/S (NP-40 vs SDS abundance) (log2 ratio); higher = more soluble; details: cell cycle stage: G1/S
HeLa Kyoto [4] = assay: solubility change mitosis vs G1/S (difference of NP-40 vs SDS log2 ratios) (log2 ratio difference); higher = more soluble in mitosis
[5] = cell cycle stage: early G1 (4.5 h after nocodazole release)
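Throughout, for melting temperature (median over replicates), in situ: HeLa Kyoto cells synchronized by double thymidine or nocodazole block, proteins quantified by TMT10plex mass spectrometry, three independent biological replicates.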
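Throughout, for solubility change mitosis vs G1/S (difference of NP-40 vs SDS log2 ratios): synchronized HeLa Kyoto cells (double thymidine block for G1/S, nocodazole release for mitosis), protein amounts in NP-40 versus SDS lysates quantified by mass spectrometry, three biological replicates.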
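Throughout, for solubility in G1/S (NP-40 vs SDS abundance): HeLa Kyoto cells arrested at G1/S by double thymidine block, proteins quantified by TMT10plex mass spectrometry in mild NP-40 versus SDS extracts, three biological replicates.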
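Throughout, for thermal stability score vs G1/S (z-score of summed log2 fold changes over temperatures): synchronized HeLa Kyoto cells, proteins quantified by TMT10plex mass spectrometry, three biological replicates, mitosis taken 0.5 h after nocodazole release, G1/S directly after double thymidine block.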

Row | Sequence | thermal stability score (HeLa Kyoto [1]; [5]) | thermal stability score (HeLa Kyoto [1]; cell cycle stage: mitosis) | melting temperature (HeLa Kyoto [2]; cell cycle stage: G1/S) [°C] | melting temperature (HeLa Kyoto [2]; cell cycle stage: mitosis) [°C] | solubility in G1/S (log2) (HeLa Kyoto [3]) | solubility change mitosis (log2) (HeLa Kyoto [4])
1 | MCGIFAYMNYRVPRTRKEIFETLIKGLQRLEYRGYDSAGVAIDGNNHEVKERHIQLVKKRGKVKALDEELYKQDSMDLKVEFETHFGIAHTRWATHGVPSAVNSHPQRSDKGNEFVVIHNGIITNYKDLRKFLESKGYEFESETDTETIAKLIKYVFDNRETEDITFSTLVERVIQQLEGAFALVFKSVHYPGEAVATRRGSPLLIGVRSKYKLSTEQIPILYRTCTLENVKNICKTRMKRLDSSACLHAVGDKAVEFFFASDASAIIEHTNRVIFLEDDDIAAVADGKLSIHRVKRSASDDPSRAIQTLQMELQQIMKGNFSAFMQKEIFEQPESVFNTMRGRVNFETNTVLLGGLKDHLKEIRRCRRLIVIGCGTSYHAAVATRQVLEELTELPVMVELASDFLDRNTPVFRDDVCFFISQSGETADTLLALRYCKDRGALTVGVTNTVGSSISRETDCGVHINAGPEIGVASTKAYTSQFISLVMFGLMMSEDRISLQNRRQEIIRGLRSLPELIKEVLSLEEKIHDLALELYTQRSLLVMGRGYNYATCLEGALKIKEITYMHSEGILAGELKHGPLALIDKQMPVIMVIMKDPCFAKCQNALQQVTARQGRPIILCSKDDTESSKFAYKTIELPHTVDCLQGILSVIPLQLLSFHLAVLRGYDVDFPRNLAKSVTVE [GFPT2] | -1.27 | 0.586 | 54.3 | 53.9 | -0.201 | -0.124
2 | MCGRTSCHLPRDVLTRACAYQDRRGQQRLPEWRDPDKYCPSYNKSPQSNSPVLLSRLHFEKDADSSERIIAPMRWGLVPSWFKESDPSKLQFNTTNCRSDTVMEKRSFKVPLGKGRRCVVLADGFYEWQRCQGTNQRQPYFIYFPQIKTEKSGSIGAADSPENWEKVWDNWRLLTMAGIFDCWEPPEGGDVLYSYTIITVDSCKGLSDIHHRMPAILDGEEAVSKWLDFGEVSTQEALKLIHPTENITFHAVSSVVNNSRNNTPECLAPVDLVVKKELRASGSSQRMLQWLATKSPKKEDSKTPQKEESDVPQWSSQFLQKSPLPTKRGTAGLLEQWLKREKEEEPVAKRPYSQ [HMCES] | 1.11 | 1.51 | 48.6 | 48.4 | 0.0685 | -0.0383
3 | MCGSALAFFTAAFVCLQNDRRGPASFLWAAWVFSLVLGLGQGEDNRCASSNAASCARCLALGPECGWCVQEDFISGGSRSERCDIVSNLISKGCSVDSIEYPSVHVIIPTENEINTQVTPGEVSIQLRPGAEANFMLKVHPLKKYPVDLYYLVDVSASMHNNIEKLNSVGNDLSRKMAFFSRDFRLGFGSYVDKTVSPYISIHPERIHNQCSDYNLDCMPPHGYIHVLSLTENITEFEKAVHRQKISGNIDTPEGGFDAMLQAAVCESHIGWRKEAKRLLLVMTDQTSHLALDSKLAGIVVPNDGNCHLKNNVYVKSTTMEHPSLGQLSEKLIDNNINVIFAVQGKQFHWYKDLLPLLPGTIAGEIESKAANLNNLVVEAYQKLISEVKVQVENQVQGIYFNITAICPDGSRKPGMEGCRNVTSNDEVLFNVTVTMKKCDVTGGKNYAIIKPIGFNETAKIHIHRNCSCQCEDNRGPKGKCVDETFLDSKCFQCDENKCHFDEDQFSSESCKSHKDQPVCSGRGVCVCGKCSCHKIKLGKVYGKYCEKDDFSCPYHHGNLCAGHGECEAGRCQCFSGWEGDRCQCPSAAAQHCVNSKGQVCSGRGTCVCGRCECTDPRSIGRFCEHCPTCYTACKENWNCMQCLHPHNLSQAILDQCKTSCALMEQQHYVDQTSECFSSPSYLRIFFIIFIVTFLIGLLKVLIIRQVILQWNSNKIKSSSDYRVSASKKDKLILQSVCTRAVTYRREKPEEIKMDISKLNAHETFRCNF [ITGB8] | -0.935 | -1.88 | 53.9 | 53.8 | -0.0596 | -0.0048
4 | MCSLASGATGGRGAVENEEDLPELSDSGDEAAWEDEDDADLPHGKQQTPCLFCNRLFTSAEETFSHCKSEHQFNIDSMVHKHGLEFYGYIKLINFIRLKNPTVEYMNSIYNPVPWEKEEYLKPVLEDDLLLQFDVEDLYEPVSVPFSYPNGLSENTSVVEKLKHMEARALSAEAALARAREDLQKMKQFAQDFVMHTDVRTCSSSTSVIADLQEDEDGVYFSSYGHYGIHEEMLKDKIRTESYRDFIYQNPHIFKDKVVLDVGCGTGILSMFAAKAGAKKVLGVDQSEILYQAMDIIRLNKLEDTITLIKGKIEEVHLPVEKVDVIISEWMGYFLLFESMLDSVLYAKNKYLAKGGSVYPDICTISLVAVSDVNKHADRIAFWDDVYGFKMSCMKKAVIPEAVVEVLDPKTLISEPCGIKHIDCHTTSISDLEFSSDFTLKITRTSMCTAIAGYFDIYFEKNCHNRVVFSTGPQSTKTHWKQTVFLLEKPFSVKAGEALKGKVTVHKNKKDPRSLTVTLTLNNSTQTYGLQ [PRMT3] | 0.9 | 1.13 | 50.9 | 51 | -0.146 | -0.212
5 | MDALEDYVWPRATSELILLPVTGLECVGDRLLAGEGPDVLVYSLDFGGHLRMIKRVQNLLGHYLIHGFRVRPEPNGDLDLEAMVAVFGSKGLRVVKISWGQGHFWELWRSGLWNMSDWIWDARWLEGNIALALGHNSVVLYDPVVGCILQEVPCTDRCTLSSACLIGDAWKELTIVAGAVSNQLLVWYPATALADNKPVAPDRRISGHVGIIFSMSYLESKGLLATASEDRSVRIWKVGDLRVPGGRVQNIGHCFGHSARVWQVKLLENYLISAGEDCVCLVWSHEGEILQAFRGHQGRGIRAIAAHERQAWVITGGDDSGIRLWHLVGRGYRGLGVSALCFKSRSRPGTLKAVTLAGSWRLLAVTDTGALYLYDVEVKCWEQLLEDKHFQSYCLLEAAPGPEGFGLCAMANGEGRVKVVPINTPTAAVDQTLFPGKVHSLSWALRGYEELLLLASGPGGVVACLEISAAPSGKAIFVKERCRYLLPPSKQRWHTCSAFLPPGDFLVCGDRRGSVLLFPSRPGLLKDPGVGGKARAGAGAPVVGSGSSGGGNAFTGLGPVSTLPSLHGKQGVTSVTCHGGYVYTTGRDGAYYQLFVRDGQLQPVLRQKSCRGMNWLAGLRIVPDGSMVILGFHANEFVVWNPRSHEKLHIVNCGGGHRSWAFSDTEAAMAFAYLKDGDVMLYRALGGCTRPHVILREGLHGREITCVKRVGTITLGPEYGVPSFMQPDDLEPGSEGPDLTDIVITCSEDTTVCVLALPTTTGSAHALTAVCNHISSVRAVAVWGIGTPGGPQDPQPGLTAHVVSAGGRAEMHCFSIMVTPDPSTPSRLACHVMHLSSHRLDEYWDRQRNRHRMVKVDPETRYMSLAVCELDQPGLGPLVAAACSDGAVRLFLLQDSGRILQLLAETFHHKRCVLKVHSFTHEAPNQRRRLLLCSAATDGSLAFWDLTTMLDHDSTVLEPPVDPGLPYRLGTPSLTLQAHSCGINSLHTLPTREGHHLVASGSEDGSLHVFVLAVEMLQLEEAVGEAGLVPQLRVLEEYSVPCAHAAHVTGLKILSPSIMVSASIDQRLTFWRLGHGEPTFMNSTVFHVPDVADMDCWPVSPEFGHRCALGGQGLEVYNWYD [WDR6] | -0.588 | 0.0649 | 51.5 | 51.6 | -0.611 | -0.023
